How the values were obtained:
[1] = Near- and far-UV circular dichroism; format: physicochemical; settings: mean residue ellipticity, variation of 3%
Experimental: Protein stock solutions were prepared by dissolving a known mass of protein in either 20 mM Tris or 50 mM sodium phosphate and 50 mM sodium chloride, pH 7.8, followed by zinc oxide addition to a final concentration of 0.5 mol Zn per mol of protein monomer. The pH of the solution was readjusted to pH 7.8 as needed. The protein stock concentrations were determined by UV absorbance using an AVIV model 14DS double-beam spectrophotometer. […] All circular dichroism measurements were obtained using an AVIV Model 62DS spectrometer (Lakewood, N.J.) with results reported as mean residue ellipticity (MRE) having units of deg.cm^2.dmol^-1.
All samples were measured by far-UV CD at 23° C. using a 0.01 cm CD cell. The signal at 224 nm was recorded as a function of either m-cresol or KSCN concentration.
To further explore secondary structure, the far-UV CD spectra were collected from 250 nm to 200 nm using a 0.01 cm cuvette. To gain insight into the environment of the aromatic and disulfide amino acids the near-UV CD spectra were collected from 350 to 250 nm using a 0.1 cm cell.

[2] = α-Helical analysis (CONTIN analysis from the circular dichroism spectra); format: physicochemical
Description: ^1 Determined by CONTIN analysis from the circular dichroism spectra.

[3] = from NMR / x-ray crystallography literature; cited from earlier work
[4] = injection of an acidic solution; cited from earlier work
[5] = Equilibrium ultracentrifugation (aggregation state); format: physicochemical; settings: 0.5 mol of Zn per mol of protein; 20 mM Tris pH 7.8; protein 1.5 to 5 mg/ml
Experimental: Equilibrium ultracentrifugation data was collected at 22° C. at equally spaced radial intervals using a Beckman Model XLA analytical ultracentrifuge Fullterton, Calif. Standard 30 mm and 12 mm centerpieces along with custom-made 3 mm centerpieces all made from charcoal-filled epon were used. Raw data from the chart recorder was converted to concentration versus radius using the internal calibration factors of the scanner. The weight average molecular weight was calculated according to the equation:
MW=RT/(1-Vp)ω^2.1r.1/C.dC/dr
where R is the gas constant, T is the temperature, ω is the rotor speed, r is the radius, C is the concentration, .rho. is the solvent density, and assuming ideal solutions. […] Least squares smoothing methods were used to calculate C and dC/dr.

Substance	Circular Dichroism, Wavelength 224 nm [1] [deg.cm^2.dmol^-1]	Circular Dichroism, Wavelength 251 nm [1] [deg.cm^2.dmol^-1]	Circular Dichroism, Wavelength 276 nm [1] [deg.cm^2.dmol^-1]	% Helix Measured [2] [%]	% Helix Theoretical [3] [%]	reduction of insulin absorption rate after injection [4] [%]	aggregation state (weight average molecular weight) [5]
Zn + m-cresol + Human Insulin: human insulin sample with Zn and m-cresol [reference compound]	-13488	-425	-335				
Zn + m-cresol + asp^B1 gln^B13 Insulin: asp^B1 gln^B13 insulin sample with Zn and m-cresol	-14092	-431	-384	64			
Zn + Human Insulin: human insulin sample with Zn [reference compound]	-10892	-121	-305		47		
gln^B13 analog: literature insulin analog with gln at B13 that forms stable hexamers in the absence of Zn						25	
Zn-Asp^B1 insulin: Asp^B1 insulin containing 0.5 mol of Zn per mol of protein							hexamer
Zn + asp^B1 gln^B13 Insulin: asp^B1 gln^B13 insulin sample with Zn	-14555	-426	-291	65			

Source: patent publication US5559094A (Eli Lilly and Company, priority 1994, dated 1996)
